Changes are numbered by the printed parent chain.
B1: DVD3117 (bispecific antibody, IgG1)
VH: EVQLVQSGAEVKKPGASVKVSCKASGYTFNNYGIIWVRQAPGQGLEWMGWINTYTGKPTYAQKFQGRVTMTTDTSTSTAYMELSSLRSEDTAVYYCARKLFNTVAVTDNAMDYWGQGTTVTVSSASTKGPSVFPLAPEVQLVESGGGLVQPGGSLRLSCAASGFTFSNYGVTWVRQAPGKGLEWVSMIWADGSTHYASSVKGRFTISRDNSKNTLYLQMNSLRAEDTAVYYCAREWQHGPVAYWGQGTLVTVSS
VL: DIQMTQSPSSLSASVGDRVTITCRASQDIENYLNWYQQKPGKAPKLLIYYTSRLQSGVPSRFSGSGSGTDFTLTISSLQPEDFATYFCQQGNTQPPTFGQGTKLEIKRTVAAPDIQMTQSPSSLSASVGDRVTITCRASQLVSSAVAWYQQKPGKAPKLLIYWASARHTGVPSRFSGSGSGTDFTLTISSLQPEDFATYYCQQHYKTPFTFGQGTKLEIKR
B2: DVD2694 (bispecific antibody, IgG1)
VH: EVQLVESGGGLVQPGGSLRLSCAASGFTFSNYGVTWVRQAPGKGLEWVSMIWADGSTHYASSVKGRFTISRDNSKNTLYLQMNSLRAEDTAVYYCAREWQHGPVAYWGQGTLVTVSSASTKGPEVQLVQSGAEVKKPGASVKVSCKASGYTFTKYWLGWVRQAPGQGLEWMGDIYPGYDYTHYNEKFKDRVTLTTDTSTSTAYMELRSLRSDDTAVYYCARSDGSSTYWGQGTLVTVSS
VL: DIQMTQSPSSLSASVGDRVTITCRASQLVSSAVAWYQQKPGKAPKLLIYWASARHTGVPSRFSGSGSGTDFTLTISSLQPEDFATYYCQQHYKTPFTFGQGTKLEIKRTVAAPDVLMTQTPLSLPVTPGEPASISCTSSQNIVHSNGNTYLEWYLQKPGQSPQLLIYKVSNRFSGVPDRFSGSGSGTDFTLKISRVEAEDVGVYYCFQVSHVPYTFGGGTKVEIKR
B3: DVD2698 (bispecific antibody, IgG1)
VH: EVQLVQSGAEVKKPGASVKVSCKASGYTFTKYWLGWVRQAPGQGLEWMGDIYPGYDYTHYNEKFKDRVTLTTDTSTSTAYMELRSLRSDDTAVYYCARSDGSSTYWGQGTLVTVSSGGGGSGGGGSEVQLVESGGGLVQPGGSLRLSCAASGFTFSNYGVTWVRQAPGKGLEWVSMIWADGSTHYASSVKGRFTISRDNSKNTLYLQMNSLRAEDTAVYYCAREWQHGPVAYWGQGTLVTVSS
VL: DVLMTQTPLSLPVTPGEPASISCTSSQNIVHSNGNTYLEWYLQKPGQSPQLLIYKVSNRFSGVPDRFSGSGSGTDFTLKISRVEAEDVGVYYCFQVSHVPYTFGGGTKVEIKRGGSGGGGSGDIQMTQSPSSLSASVGDRVTITCRASQLVSSAVAWYQQKPGKAPKLLIYWASARHTGVPSRFSGSGSGTDFTLTISSLQPEDFATYYCQQHYKTPFTFGQGTKLEIKR
B4: DVD2699 (bispecific antibody, IgG1)
VH: EVQLVQSGAEVKKPGASVKVSCKASGYTFTKYWLGWVRQAPGQGLEWMGDIYPGYDYTHYNEKFKDRVTLTTDTSTSTAYMELRSLRSDDTAVYYCARSDGSSTYWGQGTLVTVSSASTKGPEVQLVESGGGLVQPGGSLRLSCAASGFTFSNYGVTWVRQAPGKGLEWVSMIWADGSTHYASSVKGRFTISRDNSKNTLYLQMNSLRAEDTAVYYCAREWQHGPVAYWGQGTLVTVSS
VL: DVLMTQTPLSLPVTPGEPASISCTSSQNIVHSNGNTYLEWYLQKPGQSPQLLIYKVSNRFSGVPDRFSGSGSGTDFTLKISRVEAEDVGVYYCFQVSHVPYTFGGGTKVEIKRTVAAPDIQMTQSPSSLSASVGDRVTITCRASQLVSSAVAWYQQKPGKAPKLLIYWASARHTGVPSRFSGSGSGTDFTLTISSLQPEDFATYYCQQHYKTPFTFGQGTKLEIKR
B5: DVD2701 (bispecific antibody, IgG1)
VH: B4 VH
VL: DVLMTQTPLSLPVTPGEPASISCTSSQNIVHSNGNTYLEWYLQKPGQSPQLLIYKVSNRFSGVPDRFSGSGSGTDFTLKISRVEAEDVGVYYCFQVSHVPYTFGGGTKVEIKRTVAAPSVFIFPPDIQMTQSPSSLSASVGDRVTITCRASQLVSSAVAWYQQKPGKAPKLLIYWASARHTGVPSRFSGSGSGTDFTLTISSLQPEDFATYYCQQHYKTPFTFGQGTKLEIKR
B6: DVD2693 (bispecific antibody, IgG1)
VH: EVQLVESGGGLVQPGGSLRLSCAASGFTFSNYGVTWVRQAPGKGLEWVSMIWADGSTHYASSVKGRFTISRDNSKNTLYLQMNSLRAEDTAVYYCAREWQHGPVAYWGQGTLVTVSSGGGGSGGGGSEVQLVQSGAEVKKPGASVKVSCKASGYTFTKYWLGWVRQAPGQGLEWMGDIYPGYDYTHYNEKFKDRVTLTTDTSTSTAYMELRSLRSDDTAVYYCARSDGSSTYWGQGTLVTVSS
VL: DIQMTQSPSSLSASVGDRVTITCRASQLVSSAVAWYQQKPGKAPKLLIYWASARHTGVPSRFSGSGSGTDFTLTISSLQPEDFATYYCQQHYKTPFTFGQGTKLEIKRGGSGGGGSGDVLMTQTPLSLPVTPGEPASISCTSSQNIVHSNGNTYLEWYLQKPGQSPQLLIYKVSNRFSGVPDRFSGSGSGTDFTLKISRVEAEDVGVYYCFQVSHVPYTFGGGTKVEIKR
B7: DVD3112 (bispecific antibody, IgG1)
VH: EVQLVQSGAEVKKPGASVKVSCKASGYTFTTYGVSWVRQAPGQGLEWMGEIYPGNYNTYYNEKFRGRVTMTTDTSTSTAYMELRSLRSDDTAVYYCARWRTSYFSDYGYFDYWGQGTTVTVSSASTKGPSVFPLAPEVQLVQSGAEVKKPGASVKVSCKASGYTFANYGIIWVRQAPGQGLEWMGWINTYTGKPTYAQKFQGRVTMTTDTSTSTAYMELSSLRSEDTAVYYCARKLFTTMDVTDNAMDYWGQGTTVTVSS
VL: DVVMTQSPLSLPVTLGQPASISCRSSQSLVHSHGNTYLHWYQQRPGQSPRLLIYTVSNRFSGVPDRFSGSGSGTDFTLKISRVEAEDVGVYYCSQSTHVPYTFGGGTKVEIKRTVAAPDIQMTQSPSSLSASVGDRVTITCRASQDISQYLNWYQQKPGKAPKLLIYYTSRLQSGVPSRFSGSGSGTDFTLTISSLQPEDFATYFCQQGNTWPPTFGQGTKLEIKR
B8: DVD3122 (bispecific antibody, IgG1)
VH: B7 VH with A166N, T238N, M240V, D241A
VL: B7 VL with S148E, Q149N, W212Q
B9: DVD3119 (bispecific antibody, IgG1)
VH: EVQLVQSGAEVKKPGASVKVSCKASGYTFTTYGVSWVRQAPGQGLEWMGEIYPGNYNTYYNEKFRGRVTMTTDTSTSTAYMELRSLRSDDTAVYYCARWRTSYFSDYGYFDYWGQGTTVTVSSASTKGPEVQLVQSGAEVKKPGASVKVSCKASGYTFNNYGIIWVRQAPGQGLEWMGWINTYTGKPTYAQKFQGRVTMTTDTSTSTAYMELSSLRSEDTAVYYCARKLFNTVAVTDNAMDYWGQGTTVTVSS
VL: B7 VL with S148E, Q149N, W212Q
B10: DVD3118 (bispecific antibody, IgG1)
VH: EVQLVQSGAEVKKPGASVKVSCKASGYTFTTYGVSWVRQAPGQGLEWMGEIYPGNYNTYYNEKFRGRVTMTTDTSTSTAYMELRSLRSDDTAVYYCARWRTSYFSDYGYFDYWGQGTTVTVSSGGGGSGGGGSEVQLVQSGAEVKKPGASVKVSCKASGYTFNNYGIIWVRQAPGQGLEWMGWINTYTGKPTYAQKFQGRVTMTTDTSTSTAYMELSSLRSEDTAVYYCARKLFNTVAVTDNAMDYWGQGTTVTVSS
VL: DVVMTQSPLSLPVTLGQPASISCRSSQSLVHSHGNTYLHWYQQRPGQSPRLLIYTVSNRFSGVPDRFSGSGSGTDFTLKISRVEAEDVGVYYCSQSTHVPYTFGGGTKVEIKRGGSGGGGSGDIQMTQSPSSLSASVGDRVTITCRASQDIENYLNWYQQKPGKAPKLLIYYTSRLQSGVPSRFSGSGSGTDFTLTISSLQPEDFATYFCQQGNTQPPTFGQGTKLEIKR
B11: DVD3121 (bispecific antibody, IgG1)
VH: B9 VH
VL: DVVMTQSPLSLPVTLGQPASISCRSSQSLVHSHGNTYLHWYQQRPGQSPRLLIYTVSNRFSGVPDRFSGSGSGTDFTLKISRVEAEDVGVYYCSQSTHVPYTFGGGTKVEIKRTVAAPSVFIFPPDIQMTQSPSSLSASVGDRVTITCRASQDIENYLNWYQQKPGKAPKLLIYYTSRLQSGVPSRFSGSGSGTDFTLTISSLQPEDFATYFCQQGNTQPPTFGQGTKLEIKR
B12: DVD3167 (bispecific antibody, IgG1)
VH: EVQLVQSGAEVKKPGASVKVSCKASGYTFANYGIIWVRQAPGQGLEWMGWINTYTGKPTYAQKFQGRVTMTTDTSTSTAYMELSSLRSEDTAVYYCARKLFTTMDVTDNAMDYWGQGTTVTVSSASTKGPSVFPLAPEVQLVQSGAEVKKPGASVKVSCKASGYTFTSYWMHWVRQAPGQGLEWIGNINPKGGSNIYNEKFQGRVTMTRDTSISTAYMELSRLRSDDTAVYYCARLDYFGDSFDLWGQGTTVTVSS
VL: DIQMTQSPSSLSASVGDRVTITCRASQDISQYLNWYQQKPGKAPKLLIYYTSRLQSGVPSRFSGSGSGTDFTLTISSLQPEDFATYFCQQGNTWPPTFGQGTKLEIKRTVAAPDIQMTQSPSSLSASVGDRVTITCRASQGIRNYLNWYQQKPGKAPKLLIYYASNLEVGVPSRFSGSGSGTDYTLTISSLQPEDFATYYCQQDNRFPYTFGGGTKVEIKR
B13: DVD3177 (bispecific antibody, IgG1)
VH: B12 VH with A30N, T102N, M104V, D105A
VL: B12 VL with S30E, Q31N, W94Q

Target: Recombinant Human TNF-α/TNFSF1A (human, UniProt P01375 77-233)
Sequence (P01375 77-233 limits assumed): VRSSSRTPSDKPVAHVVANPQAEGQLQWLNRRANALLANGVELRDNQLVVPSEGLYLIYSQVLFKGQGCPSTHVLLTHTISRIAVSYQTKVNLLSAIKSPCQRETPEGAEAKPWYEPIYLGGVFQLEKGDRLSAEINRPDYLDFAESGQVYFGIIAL
Assay: cell-based or functional assay

Row | Binder | N-Terminal VD huTNFα Neutralization Assay IC50 [nM] | C-Terminal VD huTNFα Neutralization Assay IC50 [nM]
1 | B1 | 1.96 | –
2 | B2 | 0.001 | –
3 | B3 | – | 0.085
4 | B4 | – | 0.064
5 | B5 | – | 0.036
6 | B6 | 0.001 | –
7 | B7 | – | 0.387
8 | B8 | – | 0.018
9 | B9 | – | 0.163
10 | B10 | – | 0.065
11 | B11 | – | 0.036
12 | B12 | 0.018 | –
13 | B13 | 0.022 | –
